Assay [1] can be described thus: In vivo activity of ActRIIA variant with substitution at X17. The note with it: substitution of A for K at X17.
For assay [2], the target named is T1, activin B (Homo sapiens, UniProt P09529).
T1 sequence (P09529 293-407): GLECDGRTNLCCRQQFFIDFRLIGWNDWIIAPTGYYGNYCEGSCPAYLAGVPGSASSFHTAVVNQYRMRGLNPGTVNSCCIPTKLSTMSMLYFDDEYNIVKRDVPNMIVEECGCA
The assay is described as follows: Biacore ligand affinity of ActRIIB-hFc forms, steady-state affinity fit. It is filed as binding. The procedure:
(§1) Affinities of several ligands for ActRIIB(25-131)-hFc and its full-length counterpart ActRIIB(20-134)-hFc were evaluated in vitro with a Biacore™ instrument, and the results are summarized in Table 8 below. Kd values were obtained by steady-state affinity fit due to very rapid association and dissociation of the complex, which prevented accurate determination of kon and koff. ActRIIB(25-131)-hFc bound, for example, activin A, activin B, and GDF11 with high affinity.
(§2) The affinity of ActRIIB variants and other ActRIIB-hFc proteins for several ligands was evaluated in vitro with a Biacore™ instrument. Kd values were obtained by steady-state affinity fit due to the very rapid association and dissociation of the complex, which prevented accurate determination of kon and koff.

Assay [3] has as its target T2, activin A (Homo sapiens, UniProt P08476).
T2 sequence (P08476 311-426): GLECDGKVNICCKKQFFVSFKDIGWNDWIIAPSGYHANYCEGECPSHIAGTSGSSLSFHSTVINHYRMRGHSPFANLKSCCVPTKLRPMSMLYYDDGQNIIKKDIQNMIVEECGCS
The assay is described as above. It is filed as binding. The protocol:
as §1, §2

Assay [4] addresses T3, GDF11 (Homo sapiens, UniProt O95390).
T3 sequence (O95390 299-407): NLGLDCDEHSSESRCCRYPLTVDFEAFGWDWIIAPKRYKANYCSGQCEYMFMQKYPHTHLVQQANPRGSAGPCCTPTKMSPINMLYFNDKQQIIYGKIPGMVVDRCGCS
The assay is described as above. It is filed as binding. The procedure: as §1, §2

Assay [5] addresses T4, BMP10 (Homo sapiens, UniProt O95393).
T4 sequence (O95393 317-424): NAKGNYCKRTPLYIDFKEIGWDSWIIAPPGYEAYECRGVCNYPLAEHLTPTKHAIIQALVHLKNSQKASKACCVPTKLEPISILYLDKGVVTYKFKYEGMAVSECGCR
The assay is described as follows: Biacore ligand affinity of ActRIIB-hFc variants (Example 10). It is filed as binding. The procedure:
as §2

Assay [6] has as its target T5, BMP6 (Homo sapiens, UniProt P22004).
T5 sequence (P22004 375-513): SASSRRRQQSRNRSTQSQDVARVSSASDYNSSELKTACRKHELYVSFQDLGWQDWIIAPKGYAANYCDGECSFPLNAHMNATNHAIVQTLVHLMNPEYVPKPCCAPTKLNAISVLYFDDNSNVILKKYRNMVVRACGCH
Described as above. It is filed as binding. The procedure:
as §2

In assay [7] the target is T6, GDF8 (Homo sapiens, UniProt O14793).
T6 sequence (O14793 267-375): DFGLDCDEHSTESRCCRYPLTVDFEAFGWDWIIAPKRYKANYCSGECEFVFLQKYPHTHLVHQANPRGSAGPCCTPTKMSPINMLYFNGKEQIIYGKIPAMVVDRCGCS
Described as above. It is filed as binding. The protocol:
as §2

The target of assay [8] is T1, activin B. The assay is described as follows: A-204 Reporter Gene Assay (Example 13). It is filed as cell-based. An excerpt:
(§3) In addition, an A-204 Reporter Gene Assay was used to evaluate the effects of ALK4-Fc:ActRIIB-Fc heterodimer and ActRIIB-Fc:ActRIIB-Fc homodimer on signaling by activin A, activin B, GDF11, GDF8, BMP10, and BMP9. Cell line: Human Rhabdomyosarcoma (derived from muscle). Reporter vector: pGL3(CAGA)12 (as described in Dennler et al, 1998, EMBO 17: 3091-3100). The CAGA12 motif is present in TGFβ responsive genes (PAI-1 gene), so this vector is of general use for factors signaling through Smads. An exemplary A-204 Reporter Gene Assay is outlined below. • Day 1: Split A-204 cells into 48-well plate. • Day 2: A-204 cells transfected with 10 ug pGL3(CAGA)12 or pGL3(CAGA)12(10 ug)+pRLCMV (1 ug) and Fugene. • Day 3: Add factors (diluted into medium+0.1% BSA). Inhibitors need to be pre-incubated with Factors for about one hr before adding to cells. About six hrs later, cells are rinsed with PBS and then lysed.
(§4) Following the above steps, a Luciferase assay was performed.

For assay [9], the target named is T4, BMP10. The assay is described as follows: Biacore ligand binding profile, ALK4-Fc:ActRIIB-Fc heterodimer vs homodimers, anti-Fc capture (Example 13, Table 13). The note with it: ligand BMP10, Table 13. The protocol: (§5) A Biacore™-based binding assay was used to compare ligand binding selectivity of the ALK4-Fc:ActRIIB-Fc heterodimeric complex described above with that of ActRIIB-Fc and ALK4-Fc homodimer complexes. The ALK4-Fc:ActRIeB-Fc heterodimer, […], and ALK4-Fc homodimer were independently captured onto the system using an anti-Fc antibody. Ligands were injected and allowed to flow over the captured receptor protein. Results are summarized in Table 13 below, in which ligand off-rates (kd) most indicative of effective polypeptides are denoted in bold.

The target in assay [10] is T1, activin B. Described as above. Particulars: ligand Activin B, Table 13. The protocol: as §5
For a further assay, the target named is T7, BMP9 (Homo sapiens, UniProt Q9UK05).
T7 sequence (Q9UK05 320-429): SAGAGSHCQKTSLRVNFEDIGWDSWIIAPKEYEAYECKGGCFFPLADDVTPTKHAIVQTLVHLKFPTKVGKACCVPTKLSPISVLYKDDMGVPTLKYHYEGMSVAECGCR
The description is as above. The procedure: as §5

Assay [11] has as its target T5, BMP6. The description is as above. The procedure: as §5
For the next assay, the target named is T8, GDF3 (Homo sapiens, UniProt Q9NR23).
T8 sequence (Q9NR23 251-364): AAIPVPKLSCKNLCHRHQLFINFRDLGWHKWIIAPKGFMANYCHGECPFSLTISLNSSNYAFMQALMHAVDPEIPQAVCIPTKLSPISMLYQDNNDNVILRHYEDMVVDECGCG
The assay is described as above. Particulars: ligand GDF3, Table 13. The procedure:
as §5

For assay [12], the target named is T2, activin A. Described as above. The procedure:
as §5

Assay [13] addresses T3, GDF11. The assay is described as above. The procedure:
as §5

In assay [14] the target is T6, GDF8. Described as above. The procedure:
as §5

Assay [15] concerns the target T2, activin A. Put plainly: A-204 reporter gene assay, pGL3(CAGA)12 luciferase. The note with it: A-204 reporter gene assay. It is filed as cell-based. Put shortly: (§6)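 Human rhabdomyosarcoma A-204 cells transfected with SMAD-responsive pGL3(CAGA)12 luciferase reporter (optionally with pRLCMV). Ligand in medium + 0.1% BSA, preincubated ~1 h with Fc-fusion inhibitor before addition to cells; after ~6 h cells lysed and luciferase activity measured.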

Assay [16] has as its target T3, GDF11. The assay is described as follows: A-204 reporter gene assay, pGL3(CAGA)12 luciferase. It is filed as cell-based. Particulars: A-204 reporter gene assay. Put shortly: as §6
For assay [17], the target named is T6, GDF8. Put plainly: A-204 reporter gene assay, pGL3(CAGA)12 luciferase. It is filed as cell-based.
Excerpt: An A-204 reporter gene assay was used to evaluate the effects of ActRIIB-Fc proteins and ActRIIB variant Fc fusion polypeptides on signaling by GDF-11 and activin A. Cell line: human rhabdomyosarcoma (derived from muscle). Reporter vector: pGL3(CAGA)12 (described in Dennler et al, 1998, EMBO 17: 3091-3100). The CAGA12 motif is present in TGF-beta responsive genes (e.g., PAI-1 gene), so this vector is of general use for factors signaling through SMADs.
Day 1: Split A-204 cells into 48-well plate.
Day 2: A-204 cells transfected with 10 ug pGL3(CAGA)12 or pGL3(CAGA)12(10 ug)+pRLCMV (1 pg) and Fugene.
Day 3: Add factors (diluted into medium+0.1% BSA). Inhibitors need to be preincubated with factors for 1 hr before adding to cells. Six hrs later, cells were rinsed with PBS and lysed.
This is followed by a luciferase assay.
As described below, ActRIIB variants were also tested in this assay.
as §3, §4

B1: SEQ ID NO: 283: ActRIIA variant with alanine (A) substituted for lysine (K) at X17 (protein)
chain: GAILGRSETQECLFYNANWELERTNQTGVERCEGEKDKRLHCYATWRNISGSIEIVAKGCWLDDFNCYDRTDCVETEENPQVYFCCCEGNMCNEKFSYFPEMEVTQPTS
For B1, the activity in vivo entry in assay [1] is “reduced activity in vivo”.

B2: ActRIIB(L79D 25-131)-hFc: truncated ActRIIB extracellular domain (residues 25-131) with L79D substitution fused to human Fc (protein)
chain: ETRECIYYNANWELERTNQSGLERCEGEQDKRLHCYASWRNSSGTIELVKKGCWDDDFNCYDRQECVATEENPQVYFCCCEGNFCNERFTHLPEAGGPEVTYEPPPTGGGTHTCPPCPAPELLGGPSVFLFPPKPKDTLMISRTPRVTCVVVDVSHEDPEVKFNWYVDGVEVHNAKTKPREEQYNSTYRVVSVLTVLHQDWLNGKEYKCKVSNKALPAPIEKTISKAKGQPREPQVYTLPPSREEMTKNQVSLTCLVKGFYPSDIAVEWESNGQPENNYKTTPPVLDSDGSFFLYSKLTVDKSRWQQGNVFSCSVMHEALHNHYTQKSLSLSPGK
In the case of B2, the “activin B binding” value in the assay with activin B [2] (Biacore) is given as “partial loss of activin B binding”. Also, the Kd worked out at 0.621 nM with activin B [2] (Table 12, Kd by steady-state affinity fit, read-out: Activin B (Kd e−11)); 22.9 nM in the assay with activin A [3] (Table 12, Kd by steady-state affinity fit, read-out: Activin A (Kd e−11)); 0.074 nM with GDF11 [4] (Table 12, Kd by steady-state affinity fit, read-out: GDF11 (Kd e−11)). Further, in the assay with activin A [3] (Biacore), the “activin A binding” value is “pronounced loss of activin A binding”. The “GDF11 binding” value with GDF11 [4] (Biacore) is “nearly full retention of GDF11 binding”. For the same molecule, the “BMP10 binding” value in the assay with BMP10 [5] is “strong to intermediate binding”. In the assay with BMP6 [6], the “BMP6 binding” value is given as “strong to intermediate binding”. In addition, the “GDF8 binding” value with GDF8 [7] was “strong to intermediate binding”.

B3: ActRIIB-Fc homodimer: ActRIIB-Fc homodimer complex used as comparator in Example 13 (protein)
chain: GRGEAETRECIYYNANWELERTNQSGLERCEGEQDKRLHCYASWRNSSGTIELVKKGCWLDDFNCYDRQECVATEENPQVYFCCCEGNFCNERFTHLPEAGGPEVTYEPPPTAPTGGGTHTCPPCPAPELLGGPSVFLFPPKPKDTLMISRTPEVTCVVVDVSHEDPEVKFNWYVDGVEVHNAKTKPREEQYNSTYRVVSVLTVLHQDWLNGKEYKCKVSNKALPVPIEKTISKAKGQPREPQVYTLPPSREEMTKNQVSLTCLVKGFYPSDIAVEWESNGQPENNYKTTPPVLDSDGSFFLYSKLTVDKSRWQQGNVFSCSVMHEALHNHYTQKSLSLSPGK
As for B3, in the assay with activin B [8], the “inhibition of activin B signaling” value is reported as “potent inhibitors”. Further, the ka with BMP10 [9] is reported as 2.3 × 10^7 1/MS; with activin B [10], 5.1 × 10^6 1/MS; with BMP9 (ligand BMP9, Table 13), 1.4 × 10^7 1/MS; with BMP6 [11] (ligand BMP6, Table 13), 3.2 × 10^7 1/MS; with GDF3, 1.4 × 10^6 1/MS; in the assay with activin A [12] (ligand Activin A, Table 13) it was 1.2 × 10^7 1/MS. Besides, the ka was 5.0 × 10^7 1/MS with GDF11 [13] (ligand GDF11, Table 13) and 8.3 × 10^5 1/MS with GDF8 [14] (ligand GDF8, Table 13). The kd is 0.00026 s⁻¹ with BMP10 [9]; 0.0001 s⁻¹ with activin B [10]; 0.0011 s⁻¹ in the assay with BMP9 (ligand BMP9, Table 13); 0.0068 s⁻¹ with BMP6 [11] (ligand BMP6, Table 13); 0.0022 s⁻¹ with GDF3; 0.00023 s⁻¹ with activin A [12] (ligand Activin A, Table 13). Moreover, the kd in the assay with GDF11 [13] (ligand GDF11, Table 13) was found to be 0.00011 s⁻¹; with GDF8 [14] (ligand GDF8, Table 13), 0.00023 s⁻¹. Also, the “BMP9 binding” value in the assay with BMP9 (Example 13) was “binds strongly”. Moreover, in the assay with BMP6 [11] (Example 13), the “BMP6 binding” value is on record as “intermediate-level binding”. Moreover, the “activin A binding” value with activin A [12] (Example 13) is listed as “strong binding”. In addition, in the assay with GDF11 [13] (Example 13), the “GDF11 binding” value is given as “strong binding”. Moreover, the “GDF8 binding” value with GDF8 [14] (Example 13) is “strong binding”. The “inhibition of activin A signaling” value with activin A [15] is on record as “potent inhibitors”. In the assay with GDF11 [16], the “inhibition of GDF11 signaling” value is reported as “potent inhibitors”. Besides, the “inhibition of GDF8 signaling” value in the assay with GDF8 [17] is listed as “potent inhibitors”.
